In article doi:10.1101/844829:

Assays:
[1] = molecular target: Rhodamine-labeled GMPCPP-stabilized microtubules from porcine tubulin (10 % rhodamine-labeled tubulin) (porcine) (UniProt P02550); assay: single-molecule TIRF microscopy
[2] = molecular target: GMPCPP-stabilized microtubules polymerized from porcine tubulin (porcine) (UniProt P02550); assay: optical tweezers with 2D force clamp

For “Full-length budding yeast Kip3 (Kip3-eGFP-His6) (from UniProt P53086 1-805) (natural protein)”, the mean end residence time at the microtubule plus end (no load) [1] was 80 s, the mean run time on the microtubule (no load) [1] was 150 s and the end residence time at the microtubule plus end (sideward load 0.5 pN) [2] was 33 s. For the same substance, the end residence time extrapolated to zero load from the high-assisting-load data [2] was 17 s and the mean end residence time at the microtubule plus end (without load) [2] was 64 s.
